Test results from patent US20100172907A1 (Hoffmann-La Roche, published 2010).
Residue numbers refer to the chain shown, from its start. Where two headings read alike, the source gives them in different places. Groups on a side chain read outwards from the residue. No end group written: not given here. NSMP = not defined here

Assays:
[1] = molecular target: T1, human Aβ (1-40) peptide (human); experiment: SPR, immobilized fibers
T1 construct: also called Aβ1-40 fibers

[2] = molecular target: T2, BSA-conjugated Aβ heptapeptide VFFAEDC (C-terminal Cys coupled to NSMP-activated BSA); experiment: ELISA
T2 construct: also called Peptide 18-23
T2 peptide: VFFAEDC
Protocol: (§1) 50 μl of NSMP activated BSA (6.7 mg/ml) was diluted with 50 μl of PBS, 0.1% sodium azide and 10 μl of peptide solution (1 mM in DMSO) was added. As negative control activated BSA was mock-treated without peptide addition. After 4 hrs at room temperature the reaction was stopped by addition of 10 μl of 10 mM Cystein. An aliquot of the conjugate reaction mixture was diluted 1:100 with 0.1M sodium bicarbonate buffer and immediately filled into the wells (100 μl) of ELISA plates (Nunc Immuno-Plate). After standing 16 hrs at 4° C. 100 μl blocking buffer (as above) was added to each well and incubated for another 30 minutes. The plates were washed with 2×300 μl/well TBST (as above) and filled with 100 μl antibody at 10 μg/ml or 2 μg/ml in blocking buffer. The plates were kept 16 hours at 4° C. and washed with 2×300 μl TBST. 100 μl/well HRP-conjugated anti-human Ig H+L (Pierce, dilution 1:1000 with blocking buffer) was added and incubated for 1 hour at ambient temperature. The plates were washed with 3×300 μl/well TBST. Colour development was started by addition of 100 μl tetra-methyl benzidine/hydrogen peroxide reagent.

[3] = molecular target: T3, BSA-conjugated Aβ heptapeptide LVFFAEC (reading uncertain; also: BSA conjugate); experiment: ELISA
T3 construct: also called Peptide 17-22
T3 peptide: LVFFAEC([NSMP-BSA])
Protocol: as §1

[4] = molecular target: T4, BSA-conjugated Aβ heptapeptide FFAEDVC (C-terminal Cys coupled to NSMP-activated BSA); experiment: ELISA
T4 construct: also called Peptide 19-24
T4 peptide: FFAEDVC
Protocol: as §1

[5] = molecular target: T5, BSA-conjugated Aβ heptapeptide AEFRHDC (C-terminal Cys coupled to NSMP-activated BSA); experiment: ELISA
T5 construct: also called Peptide 2-7
T5 peptide: AEFRHDC
Protocol: as §1

[6] = molecular target: T6, Aβ (1-42) peptide (human); experiment: SPR, immobilized fibers
T6 construct: also called Aβ1-42 fibers; Aβ4
Protocol: (§2) Biacore2000 and Biacore3000 instruments were used for these measurements. Aβ1-40 and Aβ1-42 fibers were generated in vitro by incubation of synthetic peptides at a concentration of 200 μg/ml in 10 mM Na-acetate buffer (pH 4.0) for three days at 37° C. […] For binders with slow kinetics KD values were calculated by curve fitting of the time-dependent sensor responses, i.e. from the ratio of koff/kₒₙ. Binders with fast kinetics were analyzed by fitting the concentration-dependent sensor responses at equilibrium (adsorption-isotherms). KD values were calculated from the Biacore sensograms based on the total Fab concentration as determined by a protein assay. […] Briefly, time-dependent protein binding to Aβ1-40 fibers immobilized on the Biacore chip was measured during the association phase under mass-limited conditions at different flow rates of the analyte solution.

[7] = molecular target: T1, human Aβ (1-40) peptide; experiment: SPR, immobilized fibers; remark: listed apart in the source
Protocol: as §2

[8] = molecular target: T6, Aβ (1-42) peptide; experiment: SPR, immobilized fibers; remark: listed apart in the source
Protocol: as §2

[9] = molecular target: T1, human Aβ (1-40) peptide; experiment: SPR, immobilized fibers; remark: listed apart in the source
Protocol: as §2

[10] = molecular target: T6, Aβ (1-42) peptide; experiment: SPR, immobilized fibers; remark: listed apart in the source
Protocol: as §2

[11] = molecular target: T1, human Aβ (1-40) peptide; experiment: SPR, immobilized fibers; remark: listed apart in the source
Protocol: as §2

[12] = molecular target: T2, BSA-conjugated Aβ heptapeptide VFFAEDC; experiment: ELISA
Protocol: as §1

[13] = molecular target: T3, BSA-conjugated Aβ heptapeptide LVFFAEC; experiment: ELISA
Protocol: as §1

[14] = molecular target: T4, BSA-conjugated Aβ heptapeptide FFAEDVC; experiment: ELISA
Protocol: as §1

[15] = molecular target: T5, BSA-conjugated Aβ heptapeptide AEFRHDC; experiment: ELISA
Protocol: as §1

[16] = molecular target: T6, Aβ (1-42) peptide; experiment: SPR, immobilized fibers, equilibrium responses
Protocol: as §2

[17] = molecular target: T1, human Aβ (1-40) peptide; experiment: SPR, immobilized fibers, equilibrium responses
Protocol: as §2

B1: MS-Roche #7.9 Fab (Fab, V domains shown)
VH: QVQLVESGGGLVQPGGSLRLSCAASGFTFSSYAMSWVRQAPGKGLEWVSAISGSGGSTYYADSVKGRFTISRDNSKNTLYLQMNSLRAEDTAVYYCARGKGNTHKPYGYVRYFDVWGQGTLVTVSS
VL: DIVLTQSPATLSLSPGERATLSCRASQSVSSSYLAWYQQKPGQAPRLLIYGASSRATGVPARFSGSGSGTDFTLTISSLEPEDFATYYCLQIYNMPITFGQGTKVEIKR
notes: VL entry is that of the H-CDR2 derivative 7.9H7
[1]
  fold improvement of affinity over the MS-Roche-7 parental Fab: > 35 fold
[2]
  OD ratio 18-23/BSA: 13
  Peptide-ratio 18-23/2-7: 0.46
[3]
  OD ratio 17-22/BSA: 9
  Peptide-ratio 17-22/2-7: 0.32
[4]
  OD ratio 19-24/BSA: 8
  Peptide-ratio 19-24/2-7: 0.29
[5]
  OD ratio 2-7/BSA: 28
[6]
  Kd: 93 nM
[7]
  Kd: 31 nM

B2: MS-R #7.12 IgG1 (antibody, V domains shown)
VH: QVELVESGGGLVQPGGSLRLSCAASGFTFSSYGMSWVRQAPGKGLEWVSNISGSGSSTYYADSVKGRFTISRDNSKNTLYLQMNSLRAEDTAVYYCARGKGNTHKPYGYVRYFDVWGQGTLVTVSS
VL: B1 VL with S28Y, S32P, Y50S, A52S, S54N, T86V, I92L, M95I, I97N
notes: full-length human IgG1
[8]
  Kd: 13.7 nM
[9]
  Kd: 3.1 nM
[10]
  Kd: 13.7 nM
[11]
  Kd: 3.1 nM
[12]
  OD ratio 18-23/BSA: 13
  Peptide-ratio 18-23/2-7: 0.68
[13]
  OD ratio 17-22/BSA: 11
  Peptide-ratio 17-22/2-7: 0.58
[14]
  OD ratio 19-24/BSA: 11
  Peptide-ratio 19-24/2-7: 0.58
[15]
  OD ratio 2-7/BSA: 19

B3: MS-Roche #8.2.H1 Fab (Fab, V domains shown)
VH: QVQLVESGGGLVQPGGSLRLSCAASGFTFSSYAMSWVRQAPGKGLEWVSAISITGRRKYYADSVKGRFTISRDNSKNTLYLQMNSLRAEDTAVYYCARLLSRGYNGYYHKFDVWGQGTLVTVSS
VL: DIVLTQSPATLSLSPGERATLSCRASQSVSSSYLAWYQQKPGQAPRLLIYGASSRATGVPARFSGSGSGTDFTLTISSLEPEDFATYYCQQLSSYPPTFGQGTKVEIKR
[2]
  OD ratio 18-23/BSA: 23
  Peptide-ratio 18-23/2-7: 1.05
[3]
  OD ratio 17-22/BSA: 7
  Peptide-ratio 17-22/2-7: 0.34
[4]
  OD ratio 19-24/BSA: 20
  Peptide-ratio 19-24/2-7: 0.94
[5]
  OD ratio 2-7/BSA: 22
[16]
  Kd: 2.1 nM
[17]
  Kd: 1.6 nM
